The results in this text go back to US20240026024A1 (SHANGHAI HUAOTA BIOPHARMACEUTICAL, published 2024).

One may read the EC50 as the midpoint of the concentration-response curve.

Assay [1] has as its target T1, mouse CD73/NT5E (ACRO Biosystems, Cat No. CD3-M52H9) (mouse, UniProt Q61503 29-551).
T1 construct: Bought protein
T1 sequence (looked up): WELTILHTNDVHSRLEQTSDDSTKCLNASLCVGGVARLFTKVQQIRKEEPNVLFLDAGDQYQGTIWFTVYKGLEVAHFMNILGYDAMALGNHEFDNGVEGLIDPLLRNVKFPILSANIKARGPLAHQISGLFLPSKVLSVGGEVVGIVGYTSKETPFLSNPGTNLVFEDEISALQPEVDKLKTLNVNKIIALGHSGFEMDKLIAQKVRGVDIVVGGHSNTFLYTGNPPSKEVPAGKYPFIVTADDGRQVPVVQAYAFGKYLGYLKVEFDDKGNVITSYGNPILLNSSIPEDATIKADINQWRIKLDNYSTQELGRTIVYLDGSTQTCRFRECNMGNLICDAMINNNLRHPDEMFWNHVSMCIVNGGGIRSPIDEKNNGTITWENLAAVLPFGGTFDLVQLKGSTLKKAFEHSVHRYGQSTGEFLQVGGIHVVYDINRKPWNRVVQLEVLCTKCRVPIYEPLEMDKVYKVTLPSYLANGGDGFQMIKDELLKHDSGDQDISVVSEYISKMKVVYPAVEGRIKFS
In words: SPR (Biacore T200), antibody captured on protein A chip. As for the experimental part: (§1) The temperatures of the sample chamber and flow path were set at 25° C. The protein A chips separately captured the antigen-binding proteins as ligands, which were immobilized at about 100 RU. […] Ten mM Glycine, pH 1.5, was regenerated for 60 s at a flow rate of […] for multiple cycle kinetic detection. The binding rate constant (ka), dissociation rate constant (kd) and dissociation equilibrium rate constant (KD) were fitted using the Fit local mode of a 1:1 binding model.
Background: SPR reads the build-up and loss of mass on a sensor chip optically.

Assay [2] deals with T2, rat CD73 (Novoprotein, Cat No. CB16) (rat, UniProt P21588 29-551, limits assumed).
T2 construct: Bought protein
T2 sequence (looked up): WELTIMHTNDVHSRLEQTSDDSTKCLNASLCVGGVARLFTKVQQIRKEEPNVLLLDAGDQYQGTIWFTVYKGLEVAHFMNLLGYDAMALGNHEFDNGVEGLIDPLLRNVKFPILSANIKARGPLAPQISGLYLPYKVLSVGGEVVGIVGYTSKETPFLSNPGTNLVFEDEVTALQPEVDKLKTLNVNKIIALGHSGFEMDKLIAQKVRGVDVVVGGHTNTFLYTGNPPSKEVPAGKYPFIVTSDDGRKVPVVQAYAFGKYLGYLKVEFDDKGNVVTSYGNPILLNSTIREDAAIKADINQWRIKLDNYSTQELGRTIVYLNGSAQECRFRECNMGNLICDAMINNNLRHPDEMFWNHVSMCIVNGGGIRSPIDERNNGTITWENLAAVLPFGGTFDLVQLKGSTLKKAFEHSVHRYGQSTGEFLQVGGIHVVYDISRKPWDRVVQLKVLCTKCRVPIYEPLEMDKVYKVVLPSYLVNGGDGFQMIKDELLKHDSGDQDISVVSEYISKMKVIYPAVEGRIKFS
The description is as above. As for the experimental part:
as §1

Assay [3] deals with T3, human CD73 protein (ACRO Biosystems, Cat No. CD3-H52H7) (human, UniProt P21589 27-547).
T3 sequence: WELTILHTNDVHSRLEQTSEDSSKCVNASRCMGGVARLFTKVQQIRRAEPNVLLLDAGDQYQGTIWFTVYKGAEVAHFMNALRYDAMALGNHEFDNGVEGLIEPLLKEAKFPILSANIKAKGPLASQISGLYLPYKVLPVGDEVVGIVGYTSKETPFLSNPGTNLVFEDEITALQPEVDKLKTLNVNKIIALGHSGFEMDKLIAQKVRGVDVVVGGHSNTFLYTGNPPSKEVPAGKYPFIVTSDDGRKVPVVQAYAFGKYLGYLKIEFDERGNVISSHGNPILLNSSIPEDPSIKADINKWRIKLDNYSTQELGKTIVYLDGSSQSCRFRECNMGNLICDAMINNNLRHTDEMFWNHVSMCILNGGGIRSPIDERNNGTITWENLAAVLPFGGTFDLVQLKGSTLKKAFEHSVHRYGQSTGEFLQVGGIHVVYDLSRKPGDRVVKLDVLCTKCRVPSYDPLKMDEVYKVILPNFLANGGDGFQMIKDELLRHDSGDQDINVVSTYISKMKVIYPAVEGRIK
Put plainly: cell-based or functional assay.

Assay [4] has as its target T4, human CD73 on the cell surface (human, UniProt P21589 27-549).
T4 construct: also called CHOK1-huCD73-3F4 cells; human CD73-expressing cells
T4 sequence: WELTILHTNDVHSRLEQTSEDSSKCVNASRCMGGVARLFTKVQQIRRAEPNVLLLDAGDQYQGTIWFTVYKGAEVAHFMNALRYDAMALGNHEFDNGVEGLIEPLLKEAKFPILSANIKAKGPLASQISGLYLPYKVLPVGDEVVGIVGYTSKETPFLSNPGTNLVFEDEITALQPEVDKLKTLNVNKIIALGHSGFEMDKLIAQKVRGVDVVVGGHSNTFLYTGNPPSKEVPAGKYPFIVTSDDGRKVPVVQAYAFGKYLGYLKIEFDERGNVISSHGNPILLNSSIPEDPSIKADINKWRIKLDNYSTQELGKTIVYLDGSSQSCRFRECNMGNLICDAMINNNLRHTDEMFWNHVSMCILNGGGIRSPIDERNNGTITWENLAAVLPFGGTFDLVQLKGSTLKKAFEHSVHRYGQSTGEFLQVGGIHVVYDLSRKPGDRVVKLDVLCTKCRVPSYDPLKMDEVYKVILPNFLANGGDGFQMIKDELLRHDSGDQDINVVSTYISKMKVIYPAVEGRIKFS
Put plainly: flow cytometry on CHOK1-huCD73-3F4 cells, PE anti-human Fc. How it is done:
All the antigen-binding proteins were diluted to 30 μg/ml with PBS solution containing 1% BSA (1% BSA/PBS), diluted at 3-fold into 11 gradients and then added to a 96-well U-shaped plate at 20 μL/well, and negative control (1% BSA/PBS was added only) was set up simultaneously. The suspension of human CD73-expressing cells (CHOK1-huCD73-3F4, Huabo Biopharm) in the logarithmic growth phase were collected and centrifuged at 1000 rpm for 5 min, and the culture medium was discarded; then the cells were resuspended with 1% BSA/PBS to a viable cell density of 1×10⁶/mL, and then added into the 96-well U-shaped plate already added with anti-CD73 antigen-binding protein at 20 μL (2×10⁴ cells)/well for reaction at room temperature for 30 min. […] After the reaction, the cells in the 96-well U-shaped plate were resuspended with 1% BSA/PBS and centrifuged at 300 g for 3 min and the supernatant was discarded; after washing in this manner 3 times, and the cells were finally resuspended with 1% BSA/PBS at 100 μL/well, and the fluorescence intensity of the PE channel was measured with a flow cytometer (BD, #Canto II).
Background: In flow cytometry, cells or beads pass a laser one at a time.

The target in assay [5] is T4, human CD73 on the cell surface. In words: cell-based or functional assay.

B1: 900695 (antibody, V domains shown)
VH: QVQLVESGGGLVKPGGSLRLSCAASGFTFSKYAMSWVRQAPGKGLEWVAEISSGGGYINYADSVTGRFTISRDNAKNSLYLQMNSLRAEDTAVYYCARAIYYYGSSYNYYAMDYWGQGTTVTVSS
VL: DIQMTQSPSSLSASVGDRVTITCRASQDVGTAEAWYQQKPGKAPKLLIYWASTRHTGVPSRFSGSGSGTDFTLTISSLQPEDFATYYCQQYSSYPLTFGQGTKLEIK
notes: Constant regions are not restated
Take B1: the binding result in assay [1] and in assay [2] was “no binding (tested: up to 50 nM analyte)” in each case. In addition, the “EC50(µg/mL), inhibition of recombinant CD73 (CellTiter-Glo)” value (from here on “EC50(µg/mL), inhibition”) in assay [3] was 0.746 µg/mL. This molecule also showed a 50% effective concentration (EC50) in assay [4] of 0.594 µg/mL.

B2: 900697 (antibody, V domains shown)
VH: QVQLVESGGGLVKPGGSLRLSCAASGFTFSKYAMSWVRQAPGKGLEWVAEISSGGGYINYADSVTGRFTISRDNAKNSLYLQMNSLRAEDTAVYYCARAIYYYGSSYNYYAMDYWGQGTTVTVSS
VL: DIQMTQSPSSLSASVGDRVTITCRASQDVGTAEAWYQQKPGKAPKLLIYWASTLQSGVPSRFSGSGSGTDFTLTISSLQPEDFATYYCQQYSSYPLTFGQGTKLEIK
notes: as for B1
As to B2, the binding result in assay [1] and in assay [2] was “no binding (tested: up to 50 nM analyte)” in each case. In addition, in assay [5], the “Endocytosis efficiency (%)” value amounted to 98.2%. Also, the “EC50(µg/mL), inhibition” value in assay [3] came to 0.585 µg/mL. Also, the response in assay [4] was half-maximal at 0.518 µg/mL (EC50).

B3: 900698 (antibody, V domains shown)
VH: QVQLVESGGGLVKPGGSLRLSCAASGFTFSKYAMSWIRQAPGKGLEWVAEISSGGGYINYADSVKGRFTISRDNAKNSLYLQMNSLRAEDTAVYYCARAIYYYGSSYNYYAMDYWGQGTTVTVSS
VL: DIQMTQSPSSLSASVGDRVTITCRASQDVGTAEAWYQQKPGKAPKLLIYWASTRHTGVPSRFSGSGSGTDFTLTISSLQPEDFATYYCQQYSSYPLTFGQGTKLEIK
notes: as for B1
B3: the binding result in assay [1] and in assay [2] was “no binding (tested: up to 50 nM analyte)” throughout. The “Endocytosis efficiency (%)” value in assay [5] came out at 96.3%. In assay [3], the “EC50(µg/mL), inhibition” value was 0.588 µg/mL. Moreover, the 50% effective concentration (EC50) in assay [4] is 0.688 µg/mL.

B4: 900696 (antibody, V domains shown)
VH: QVQLVESGGGLVKPGGSLRLSCAASGFTFSKYAMSWIRQAPGKGLEWVAEISSGGGYINYADSVKGRFTISRDNAKNSLYLQMNSLRAEDTAVYYCARAIYYYGSSYNYYAMDYWGQGTTVTVSS
VL: DIQMTQSPSSLSASVGDRVTITCRASQDVGTAEAWYQQKPGKAPKLLIYWASTLQSGVPSRFSGSGSGTDFTLTISSLQPEDFATYYCQQYSSYPLTFGQGTKLEIK
notes: as for B1
In the case of B4, the binding result in assay [1] and in assay [2] was “no binding (tested: up to 50 nM analyte)” each time. Also, in assay [3], the “EC50(µg/mL), inhibition” value was determined as 0.751 µg/mL. In assay [4], this molecule showed an EC50 of 0.684 µg/mL.

B5: 900581 (antibody, human IgG1, V domains shown)
VH: EVQLVESGGGLVKPGGSLKLSCAASGFTFSKYAMSWVRQSPEKRLEWVAEISSGGGYINYPDTVTGRFTISRDNAKNTLYLEMSSLRSGDTAMYYCARAIYYYGSSYNYYAMDYWGQGTSVTVSS
VL: DIVMTQSHKFMSTSVGDRVSITCKASQDVGTAEAWYQQKPGQSPKLLIYWASTRHTGVPDRFTGSGSGTDFTLTIGNVQSEDLADYFCQQYSSYPLTFGGGTKLEIK
Turning to B5, the binding result in assay [1] and in assay [2] was “no binding (tested: up to 50 nM analyte)” in each case. Besides, the “Endocytosis efficiency (%)” value in assay [5] amounted to 78.8%. In assay [3], the “EC50(µg/mL), inhibition” value amounted to 0.262 µg/mL. For the same molecule, the EC50 in assay [4] worked out at 0.347 µg/mL.
